Test results as given in article PMC5615036, “Crystal structure of an ASCH protein from Zymomonas mobilis and its ribonuclease activity specific for single-stranded RNA”.

Molecular target: T1, ZmASCH wild-type (Zymomonas mobilis ZM4, UniProt Q5NP14 1-148)
T1 sequence: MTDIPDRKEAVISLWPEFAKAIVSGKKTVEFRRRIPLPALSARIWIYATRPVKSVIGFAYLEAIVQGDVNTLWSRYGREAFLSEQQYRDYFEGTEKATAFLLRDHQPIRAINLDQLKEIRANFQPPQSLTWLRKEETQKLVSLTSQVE
Test: EMSA; 10 mM Mg2+; bound, not degraded; EMSA: 20 mM Tris-HCl pH 7.5, 10 mM Mg acetate, 300 mM KCl, 100 ng/uL BSA, 100 ng/uL heparin, 30 min at 310 K; nuclease assay: 20 mM Tris-HCl pH 8.0, 100 mM KCl, 100 ng/uL BSA, with or without 10 mM divalent metal, 310 K
Conditions: protein: recombinant; tags: N-terminal His6; label: 5'-32P; single strand

ATCAGCTCGTCACAACATTACTTCATCAAC (ssDNA) [ssDNA(30mer)]
binding result: binds
